# Reference: patent publication US20240181094A1, “[161Tb]-BASED RADIOPEPTIDES” (priority 2021, published 2024)
# Like-named read-outs stand apart in the source and are kept apart here. Starred links: 1 amine or outer side, 2 acyl side, 3 side chain; linkers in the order of their positions; H or OH if unused. Positions of bridges follow the written chain, without caps; N, C: chain ends. Non-standard residues stand in square brackets, D forms with d. Residues, ends and D or L forms follow the SMILES beside them. *: point of attachment. DOTA = O=C(O)CN1CCN(CC(=O)O)CCN(CC(=O)*)CCN(CC(=O)O)CC1; dPhe(4-NHCONH2) = NC(=O)Nc1ccc(C[C@@H](N)C(=O)O)cc1; X1 = NC(=O)Nc1ccc(CC(N[*:1])C(=O)[*:2])cc1; Phe(4-Cl) = N[CH](Cc1ccc(Cl)cc1)C(=O)O
# What was measured:
# [1] = tested on: AR42J tumor-bearing mice; assay: Biodistribution studies: assessment of the optimum injected molar amount; settings: 2 h p.i.; for kidney uptake: irrespective of the injected amount of peptide
# [2] = mouse, in vivo
# Description: Early side effects were assessed based on the RBW of each mouse which was monitored every second day. When an endpoint was reached or at the end of the study (after 49 days), relevant organs and tissues were collected, weighed and put into relation to the brain mass and body weight of the respective mouse. This allowed comparison of organ-to-brain and organ-to-body mass weight ratios. In addition, blood plasma parameters from blood collected immediately after euthanasia were measured.
# RBW, organ mass and mass ratios at the endpoint. The RBW was monitored every second day. Mice were euthanized when a predefined endpoint criterion was reached or when the study was terminated at Day 49. RBWs, organ masses, organ mass ratios (kidney-to-brain, liver-to-brain and spleen-to-brain) and organ mass to body weight ratios (kidney-to-body mass, liver-to-body mass and spleen-to-body mass) were analyzed for significance using a one-way ANOVA test with a Tukey's multiple comparisons post-test. A p-value of <0.05 was considered as statistically significant.
# Blood plasma chemistry: Immediately before euthanasia of the mice that reached the endpoint, blood was sampled from the retrobulbar vein. The values of creatinine (CRE), blood urea nitrogen (BUN), alkaline phosphatase (ALP), total bilirubin (TBIL) and albumin (ALB) were determined in the plasma after centrifugation of the blood using a dry chemistry analyzer (DRI-CHEM 4000 i, FUJIFILM, Japan). The average blood plasma parameters of each group were analyzed for significance using a one-way ANOVA test with a Tukey's multiple comparisons post-test. A p-value of <0.05 was considered as statistically significant.
# [3] = tested on: AR42 J tumor-bearing mice; assay: Preclinical therapy study in AR42 J tumor-bearing mice; assay type: in vivo; settings: 2 x 10 MBq; for tumor doubling time: 0.2 nmol, regrowth phase, fitted exponential curve
# [4] = tested on: AR42J tumor-bearing mice; settings: 0.2 nmol/mouse
# Description: Five-week-old female, athymic nude mice (CD-1 Foxn-1/nu) were obtained from Charles River Laboratories (Sulzfeld, Germany). Mice were subcutaneously inoculated with AR42 J tumor cells (5×10^6 cells in 100 μl PBS) for SPECT/CT imaging, biodistribution and therapy studies. The SPECT/CT and biodistribution studies were performed 10-14 days after tumor cell inoculation when the tumor size reached a volume of ˜250 mm^3.
# The mice were sacrificed at 0.5 h, 2 h, 4 h, 24 h and 48 h p.i, selected tissues and organs were collected, weighed, and the accumulated activity was counted using a γ-counter (Perkin Elmer). The decay-corrected data were listed as % IA/g. The data were analyzed for significance using a two-way ANOVA with Tukey's multiple comparison post-tests. A p-value of <0.05 was considered statistically significant.
# [5] = in vivo; settings: female, athymic nude CD-1 Foxn-1/nu, mouse, iv, 1 nmol/mouse, total radioactivity
structure (smiles),measurement,setting,value
C[C@@H](O)[C@@H]1NC(=O)[C@H](CCCCN)NC(=O)[C@@H](Cc2c[nH]c3ccccc23)NC(=O)[C@H](Cc2ccc(O)cc2)NC(=O)[C@@H](NC(=O)[C@@H](Cc2ccccc2)NC(=O)CN2CCN(CC(=O)O)CCN(CC(=O)O)CCN(CC(=O)O)CC2)CSSC[C@@H](C(=O)N[C@H](CO)[C@@H](C)O)NC1=O [[^161Tb]Tb-DOTATOC] [metal not drawn],AR42J Tumor uptake,[1]; 0.040 nmol/mouse,16 ± 4 % IA/g
same,Adrenals uptake,[1]; 0.040 nmol/mouse,0.65 ± 0.08 % IA/g
same,Intestines uptake,[1]; 0.040 nmol/mouse,0.52 ± 0.15 % IA/g
same,Kidneys uptake,[1]; 0.040 nmol/mouse,9.0 ± 2.0 % IA/g
same,Liver uptake,[1]; 0.040 nmol/mouse,0.22 ± 0.02 % IA/g
same,Pancreas uptake,[1]; 0.040 nmol/mouse,2.1 ± 0.5 % IA/g
same,Spleen uptake,[1]; 0.040 nmol/mouse,0.50 ± 0.11 % IA/g
same,Stomach uptake,[1]; 0.040 nmol/mouse,2.9 ± 1.1 % IA/g
same,AR42J Tumor uptake,[1]; 0.20 nmol/mouse,14 ± 1 % IA/g
same,Adrenals uptake,[1]; 0.20 nmol/mouse,0.43 ± 0.11 % IA/g
same,Blood uptake,[1]; 0.20 nmol/mouse,≤0.10 % IA/g
same,Femur uptake,[1]; 0.20 nmol/mouse,0.12 ± 0.03 % IA/g
same,Intestines uptake,[1]; 0.20 nmol/mouse,0.24 ± 0.01 % IA/g
same,Kidneys uptake,[1]; 0.20 nmol/mouse,9.4 ± 0.4 % IA/g
same,Liver uptake,[1]; 0.20 nmol/mouse,0.19 ± 0.03 % IA/g
same,Lung uptake,[1]; 0.20 nmol/mouse,0.47 ± 0.05 % IA/g
same,Pancreas uptake,[1]; 0.20 nmol/mouse,1.5 ± 0.2 % IA/g
same,Spleen uptake,[1]; 0.20 nmol/mouse,0.18 ± 0.02 % IA/g
same,AR42J Tumor uptake,[1]; 1.0 nmol/mouse,8.2 ± 0.2 % IA/g
same,Adrenals uptake,[1]; 1.0 nmol/mouse,0.25 ± 0.06 % IA/g
same,Blood uptake,[1]; 1.0 nmol/mouse,≤0.10 % IA/g
same,Femur uptake,[1]; 1.0 nmol/mouse,≤0.10 % IA/g
same,Heart uptake,[1]; 1.0 nmol/mouse,≤0.10 % IA/g
same,Intestines uptake,[1]; 1.0 nmol/mouse,0.21 ± 0.13 % IA/g
same,Kidneys uptake,[1]; 1.0 nmol/mouse,9.9 ± 1.3 % IA/g
same,Liver uptake,[1]; 1.0 nmol/mouse,0.17 ± 0.01 % IA/g
same,Lung uptake,[1]; 1.0 nmol/mouse,0.27 ± 0.03 % IA/g
same,Muscle uptake,[1]; 1.0 nmol/mouse,≤0.10 % IA/g
same,Pancreas uptake,[1]; 1.0 nmol/mouse,0.71 ± 0.07 % IA/g
same,Spleen uptake,[1]; 1.0 nmol/mouse,0.11 ± 0.02 % IA/g
same,Stomach uptake,[1]; 1.0 nmol/mouse,0.74 ± 0.38 % IA/g
same,kidney uptake,[1],~10 % IA/g
same,"ALB (albumin), plasma",[2],23 ± 2 g/L
same,"ALP (alkaline phosphatase), plasma",[2],76 ± 21 U/L
same,"BUN (blood urea nitrogen), plasma",[2],5.8 ± 1.0 mmol/L
same,"CRE (creatinine), plasma",[2],<18 µmol/L
same,Organ mass Brain,[2],440 ± 23 mg
same,Organ mass Kidneys,[2],352 ± 27 mg
same,Organ mass Liver,[2],1195 ± 57 mg
same,Organ mass Spleen,[2],86 ± 19 mg
same,Median survival,"[3]; 0.2 nmol (Day 0, Day 7)",21 days
same,tumor growth delay,"[3]; 0.2 nmol (Day 0, Day 7)",9.0 ± 5.5 days
same,tumor doubling time,[3],3.4 ± 3.6 days
C[C@@H](O)[C@@H]1NC(=O)[C@H](CCCCN)NC(=O)[C@@H](Cc2c[nH]c3ccccc23)NC(=O)[C@H](Cc2ccc(O)cc2)NC(=O)[C@@H](NC(=O)[C@@H](Cc2ccccc2)NC(=O)CN2CCN(CC(=O)O)CCN(CC(=O)O)CCN(CC(=O)O)CC2)CSSC[C@@H](C(=O)N[C@H](CO)[C@@H](C)O)NC1=O [[^177Lu]Lu-DOTATOC] [metal not drawn],AR42J Tumor uptake,[1]; 0.040 nmol/mouse,18 ± 3 % IA/g
same,Adrenals uptake,[1]; 0.040 nmol/mouse,0.65 ± 0.10 % IA/g
same,Blood uptake,[1]; 0.040 nmol/mouse,≤0.10 % IA/g
same,Femur uptake,[1]; 0.040 nmol/mouse,0.17 ± 0.05 % IA/g
same,Heart uptake,[1]; 0.040 nmol/mouse,≤0.10 % IA/g
same,Intestines uptake,[1]; 0.040 nmol/mouse,0.33 ± 0.05 % IA/g
same,Kidneys uptake,[1]; 0.040 nmol/mouse,10 ± 2 % IA/g
same,Liver uptake,[1]; 0.040 nmol/mouse,0.18 ± 0.02 % IA/g
same,Lung uptake,[1]; 0.040 nmol/mouse,1.1 ± 0.2 % IA/g
same,Muscle uptake,[1]; 0.040 nmol/mouse,≤0.10 % IA/g
same,Pancreas uptake,[1]; 0.040 nmol/mouse,1.9 ± 0.2 % IA/g
same,Spleen uptake,[1]; 0.040 nmol/mouse,0.39 ± 0.11 % IA/g
same,Stomach uptake,[1]; 0.040 nmol/mouse,1.7 ± 0.3 % IA/g
same,AR42J Tumor uptake,[1]; 0.20 nmol/mouse,17 ± 4 % IA/g
same,Adrenals uptake,[1]; 0.20 nmol/mouse,0.51 ± 0.35 % IA/g
same,Femur uptake,[1]; 0.20 nmol/mouse,0.10 ± 0.01 % IA/g
same,Heart uptake,[1]; 0.20 nmol/mouse,≤0.10 % IA/g
same,Intestines uptake,[1]; 0.20 nmol/mouse,0.40 ± 0.25 % IA/g
same,Kidneys uptake,[1]; 0.20 nmol/mouse,10 ± 3 % IA/g
same,Liver uptake,[1]; 0.20 nmol/mouse,0.15 ± 0.03 % IA/g
same,Lung uptake,[1]; 0.20 nmol/mouse,0.63 ± 0.03 % IA/g
same,Muscle uptake,[1]; 0.20 nmol/mouse,≤0.10 % IA/g
same,Pancreas uptake,[1]; 0.20 nmol/mouse,1.7 ± 0.5 % IA/g
same,Spleen uptake,[1]; 0.20 nmol/mouse,0.15 ± 0.02 % IA/g
same,Stomach uptake,[1]; 0.20 nmol/mouse,1.1 ± 0.2 % IA/g
same,AR42J Tumor uptake,[1]; 1.0 nmol/mouse,8.9 ± 1.5 % IA/g
same,Adrenals uptake,[1]; 1.0 nmol/mouse,0.28 ± 0.08 % IA/g
same,Blood uptake,[1]; 1.0 nmol/mouse,≤0.10 % IA/g
same,Femur uptake,[1]; 1.0 nmol/mouse,≤0.10 % IA/g
same,Heart uptake,[1]; 1.0 nmol/mouse,≤0.10 % IA/g
same,Intestines uptake,[1]; 1.0 nmol/mouse,0.20 ± 0.05 % IA/g
same,Kidneys uptake,[1]; 1.0 nmol/mouse,11 ± 1 % IA/g
same,Liver uptake,[1]; 1.0 nmol/mouse,0.26 ± 0.07 % IA/g
same,Lung uptake,[1]; 1.0 nmol/mouse,0.37 ± 0.06 % IA/g
same,Muscle uptake,[1]; 1.0 nmol/mouse,≤0.10 % IA/g
same,Pancreas uptake,[1]; 1.0 nmol/mouse,0.80 ± 0.13 % IA/g
same,Spleen uptake,[1]; 1.0 nmol/mouse,0.15 ± 0.03 % IA/g
same,Stomach uptake,[1]; 1.0 nmol/mouse,0.65 ± 0.11 % IA/g
same,kidney uptake,[1],~10 % IA/g
same,"ALB (albumin), plasma",[2],24 ± 5 g/L
same,"ALP (alkaline phosphatase), plasma",[2],77 ± 8 U/L
same,"BUN (blood urea nitrogen), plasma",[2],6.3 ± 0.9 mmol/L
same,"CRE (creatinine), plasma",[2],<18 µmol/L
same,Organ mass Brain,[2],453 ± 31 mg
same,Organ mass Kidneys,[2],342 ± 23 mg
same,Organ mass Liver,[2],1121 ± 123 mg
same,Organ mass Spleen,[2],90 ± 17 mg
same,tumor growth delay,"[3]; 0.2 nmol (Day 0, Day 7)",6.0 ± 4.4 days
same,tumor doubling time,[3],3.4 ± 0.8 days
CC(O)C1NC(=O)C(CCCCN)NC(=O)C(Cc2ccc(NC(N)=O)cc2)NC(=O)C(Cc2ccc(O)cc2)NC(=O)C(NC(=O)C(Cc2ccc(Cl)cc2)NC(=O)CN2CCN(CC(=O)O)CCN(CC(=O)O)CCN(CC(=O)O)CC2)CSSCC(C(=O)NC(Cc2ccc(O)cc2)C(N)=O)NC1=O (stereo not shown) [metal not drawn] ({DOTA}-[Phe(4-Cl)]CY[X1]KTCY-NH2; disulfide 2-7; configuration not given here),Blood uptake,[4]; 0.5 h p.i.,1.3 ± 0.2 % IA/g
same,Blood uptake,[4]; 2 h p.i.,≤0.10 % IA/g
same,Muscle uptake,[4]; 2 h p.i.,≤0.10 % IA/g
same,Spleen uptake,[4]; 2 h p.i.,0.41 ± 0.08 % IA/g
same,Blood uptake,[4]; 4 h p.i.,≤0.10 % IA/g
same,Heart uptake,[4]; 4 h p.i.,≤0.10 % IA/g
same,Kidneys uptake,[4]; 4 h p.i.,9.0 ± 1.2 % IA/g
same,Muscle uptake,[4]; 4 h p.i.,≤0.10 % IA/g
same,Blood uptake,[4]; 24 h p.i.,≤0.10 % IA/g
same,Heart uptake,[4]; 24 h p.i.,≤0.10 % IA/g
same,Muscle uptake,[4]; 24 h p.i.,≤0.10 % IA/g
same,Blood uptake,[4]; 48 h p.i.,≤0.10 % IA/g
same,Heart uptake,[4]; 48 h p.i.,≤0.10 % IA/g
same,Muscle uptake,[4]; 48 h p.i.,≤0.10 % IA/g
same,"ALB (albumin), plasma",[2],22 ± 1 g/L
same,"ALP (alkaline phosphatase), plasma",[2],65 ± 15 U/L
same,Organ mass Brain,[2],465 ± 30 mg
same,Organ mass Kidneys,[2],332 ± 46 mg
same,Organ mass Liver,[2],1275 ± 254 mg
same,Organ mass Spleen,[2],85 ± 27 mg
C[C@@H](O)[C@@H]1NC(=O)[C@H](CCCCN)NC(=O)[C@@H](Cc2ccc(NC(N)=O)cc2)NC(=O)[C@H](Cc2ccc(O)cc2)NC(=O)[C@H](NC(=O)[C@H](Cc2ccc(Cl)cc2)NC(=O)CN2CCN(CC(=O)O)CCN(CC(=O)O)CCN(CC(=O)O)CC2)CSSC[C@@H](C(=O)N[C@H](Cc2ccc(O)cc2)C(N)=O)NC1=O [metal not drawn] ({DOTA}-[Phe(4-Cl)][dC]Y[dPhe(4-NHCONH2)]KTC[dY]-NH2; disulfide 2-7),tissue uptake at 2 h,[5],≤ 0.1 %ID/g
same,tissue uptake at 24 h,[5],≤ 0.1 %ID/g
same,"ALB (albumin), plasma",[2],23 ± 1 g/L
same,"ALP (alkaline phosphatase), plasma",[2],66 ± 5 U/L
same,"CRE (creatinine), plasma",[2],19 µmol/L
same,Organ mass Brain,[2],471 ± 30 mg
same,Organ mass Kidneys,[2],336 ± 13 mg
same,Organ mass Liver,[2],1254 ± 106 mg
same,Organ mass Spleen,[2],92 ± 17 mg
